Assay results published in the supplement of paper PMC9170038.

Test system: MS2 coat protein
Test: apparent KD of MS2 coat protein; designed switch direction (-1 OFF switch, 1 ON switch): -1; higher = weaker reporter binding
In short: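 Designed RNA switches were transcribed on Illumina chips by stalled E. coli RNA polymerase and titrated with SNAP-549-labelled MS2 coat protein from 0.7 or 1.5 nM, doubling to 3 µM. Step length ran from 0.8–1.5 h at the lowest concentration to 10–20 min at the highest. The apparent KD is the median over clusters for each design, from curve-fitted normalised cluster fluorescence.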

[1] = Eterna round: R95, input ligand: FMN 200 uM
[2] = Eterna round: R95, input ligand: microRNA oligo, concentration not stated
[3] = Eterna round: R95, input ligand: none
[4] = input ligand: microRNA oligo, concentration not stated

Row | Sequence | apparent KD of MS2 coat protein (input ligand: FMN 200 uM) [nM] | apparent KD of MS2 coat protein (input ligand: none) [nM] | apparent KD of MS2 coat protein [1] [nM] | apparent KD of MS2 coat protein [2] [nM] | apparent KD of MS2 coat protein [3] [nM] | apparent KD of MS2 coat protein [4] [nM]
1 | CCGAAAAGGAAGGAUAUGCUUGACGAAAGUCAAGCAGAAGGUCCUACAUGAGGAUCACCCAUGUGGUCCUUCGG [Mat - Exclusion 6 - Eli Mod - D36] (Eterna round: R97, puzzle: Exclusion 6) | 629 | 450 | – | – | – | –
2 | CCGAAGUGGCGGUCCUAUGACAUGAGGAUCACCCAUGUACUUCGCCACAAGCUUUUUGCUCAUCUUAUAGUUCUCGG [Ator] (puzzle: Sensor v3, turn-off variant 1) | – | – | 16.4 | 25.1 | 16.4 | –
3 | CCGACGUGAGGAUAUUAGAACGAGCAGACCUGAGCUCGUUCUGAGAAGGCACAUGAGGAUCACCCAUGUGAGAA [Eternabot (Original) Solution 50] (Eterna round: R97, puzzle: Exclusion 4) | 352 | 31.4 | – | – | – | –
4 | CCGAGCAGACGGAGAUCCAACAUGAGGAUCACCCAUGUCUCAAAAGCUUUUUGCUCGUCUUAUCCUCCUCUGUUCUC [Legedi] (puzzle: Sensor v3, turn-off variant 1) | – | – | 27.6 | 200 | 25.7 | –
5 | CCGCAAAUGCAGGAUAUCGUAUCGGAUACGAUACGAGAAGGGUAUACAUGAGGAUCACCCAUGUGUCCUAGCGG [Fiskers Ex 6 - 45] (puzzle: Exclusion 6) | – | – | 23.9 | 20.3 | 21.5 | –
6 | CCGCAAAUGGAGGAUAUCGUAUCGGAUACGAUACGAGAAGGCCAAACAUGAGGAUCACCCAUGUGUCCUAGCGG [Fiskers Ex 6 - 37] (puzzle: Exclusion 6) | – | – | 30 | 14.2 | 18.6 | –
7 | CCGCUCCGUGUAGGAUAUUGGCGUGCCCUGCGCCGAGAAGGACAUGAGGAUCACCCAUGUAUGUUAUUAUCACGCGUGGCGCAU [Design 77] (Eterna round: R96, puzzle: Exclusion NG 1) | 32.2 | 22 | – | – | – | 16.7
8 | CCGGAAAGGAAGGAUAUGCUAGACGAUAGUCUAGCAGAAGGUCCUACAUGAGGAUCACCCAUGUGGUCCUCCGG [Mat - Exclusion 6 - Eli Mod - D33] (Eterna round: R97, puzzle: Exclusion 6) | 274 | 1210 | – | – | – | –
9 | CCGGAAAUGUAGGAUAUAGGAGUCGAUAGACACCUAGAAGGGCAUACAUGAGGAUCACCCAUGUGUCCUACCGG [Fiskers Ex 6 - 80] (puzzle: Exclusion 6) | – | – | – | 11.8 | – | –
10 | CCGGCAUGAGGAUAUCCAUCUGGAUCAGACAAGAUCCUGAUGGAGAAGGCACAUGAGGAUCACCCAUGUUACGG [Mat - Exclusion 4 - Eli Mod - D56] (Eterna round: R97, puzzle: Exclusion 4) | 61.8 | 132 | – | – | – | –
11 | CCGGCUGCUGUGAGGAUAUGCCUGUGGGUGCGUGGGUAGAAGGCACAUGAGGAUCACCCAUGUCCUGCGGUCCC [salish99_bmx4_r4_113] (Eterna round: R97, puzzle: Brourd's mod of Exclusion 4) | 63.9 | 66 | – | – | – | –
12 | CCGGCUUAGGAGGAUAUCCCACCCGAAAGGGUGGGAGAAGGCCUAACAUGAGGAUCACCCAUGUGUCCUACCGG [Mod of Eli 15 - Jieux - Exclusion 6] (Eterna round: R97, puzzle: Exclusion 6) | 91.2 | 25.5 | – | – | – | –
13 | CCGGUUCAUUAGGAUAUGCAGGUGAACGGUGCCGUAGAAGGAAUGACAUGAGGAUCACCCAUGUAGAGGAAGUG [Eternabot (L2) Solution 82] (Eterna round: R97, puzzle: Exclusion 6) | 36.8 | 55.1 | – | – | – | –
14 | CCGUAACAUGAGGAUCACCCAUGUUAGGAUAUGUAGCGCUGGGCAUCCUCAGCUGGUUAUAGAAGGGACGAGGG [Eternabot (L2) Solution 15] (Eterna round: R97, puzzle: Exclusion 1) | 73.7 | 111 | – | – | – | –
15 | CCGUCAUCAGGAUAUCCACAUCUCUACAUGAGGAUCACCCAUGUAAGCUUGGGUAAUAGCGGAGAAGGGAUAGACU [Eternabot (Original) Solution 20] (Eterna round: R97, puzzle: Exclusion 5) | 78.2 | 57.5 | – | – | – | –
16 | CCGUGCACGCUGCGGUCCUACAUGAGGAUCACCCAUGUGGUCCGGUGGCGUGGGUCGCCGGACUUGGCUCGUCUUGU [salish99_S_TOV1_R5_017] (Eterna round: R97, puzzle: Sensor, turn-off variant 1) | 35.1 | 37.6 | – | – | – | –

Row | Sequence | apparent KD of MS2 coat protein (input ligand: FMN 200 uM) [nM] | apparent KD of MS2 coat protein (input ligand: none) [nM] | apparent KD of MS2 coat protein [1] [nM] | apparent KD of MS2 coat protein [2] [nM] | apparent KD of MS2 coat protein [3] [nM] | apparent KD of MS2 coat protein [4] [nM]
17 | CCUCAACAGUAGGAUAUCAUAAAACUAUUGUGAUGAGAAGGACUGACAUGAGGAUCACCCAUGUUAACGUGAUA [Exclusion 6 - 5:a] (puzzle: Exclusion 6) | – | – | – | 17.4 | – | –
18 | CCUCCACAUGAGGAUCACCCAUGUCAGGAUAUCGUGCGCGCGUUUUCGGUCUUUCGCGCGAGAAGGGACGACUG (puzzle: Exclusion 1) | – | – | – | 24.1 | – | –
19 | CCUGCGGACAAAGGAUAUUGCGGUGGCCGGCUCAGUAAAUCUAGCCAACAUGAGGAUCACCCAUGUAAGAAGGUUGCCGUUGGU [Qudice] (Eterna round: R96, puzzle: Exclusion NG 2) | – | – | – | – | – | 17
20 | CCUGGGUCAUCUCCCAGGAACAACAUGAGGAUCACCCAUGUCUAGGAUAUCCACCAGUCAAUAAAGGAGAAGGAGACGGUGGUU [Onlaxe] (Eterna round: R96, puzzle: Exclusion NG 3) | 22.2 | 19.7 | – | – | – | 14.6
21 | CCUGUGACGCAGGAUAUCGAGCACAAUGCAUGUUGAGAAGGGCGUACAUGAGGAUCACCCAUGUCUCACGUAGG [Eternabot (L1) Solution 53] (Eterna round: R97, puzzle: Exclusion 6) | 175 | 316 | – | – | – | –
22 | CCUUAUUAUCGAGGAUAUCCUAUUGAAAUUCUGGGAGAAGGCGGACUCAACAUGAGGAUCACCCAUGUGGGACGGAUGCUAGGA [salish99_exng1_r04_603] (Eterna round: R96, puzzle: Exclusion NG 1) | 21 | 20.2 | – | – | – | 13.5
23 | CCUUUGUCAGGAUAUCAGAAAACGCCCGUAGGGAGCGCAAAUGAGAAGGGACAUGAGGAUCACCCAUGUAAAGA [Edvereri] (puzzle: Exclusion 4) | – | – | 204 | 50.1 | 53 | –
24 | CGACCACAUGAGGAUCACCCAUGUCAGGAUAUGAGAGCCUUACGAAAGAGACGGCAGCUUAGAAGGGAUGCGGC [Eternabot (L1) Solution 74] (Eterna round: R97, puzzle: Exclusion 1) | 23.3 | 26.9 | – | – | – | –
25 | CGACUAAACGUGAGGAUAUGCGGUGCCAGAACAUUGCAGAAGGCACAUGAGGAUCACCCAUGUGUGGGAGAAGA [Eternabot (L1) Solution 43] (Eterna round: R97, puzzle: Brourd's mod of Exclusion 4) | 241 | 103 | – | – | – | –
26 | CGAGACGGAGGAUAUACAUGAGGAUCACCCAUGUUAAACCACGGGUAGCCUUCGGUCGGUAGAAGGCCGCAUCG [Eternabot (Original) Solution 47] (Eterna round: R97, puzzle: Exclusion 3) | 86.7 | 21.2 | – | – | – | –
27 | CGAGAGCGAGGAUAUACACAACACCUCACUGUCAAGAAAGGACAUGAGGAUCACCCAUGUAGAAGGUGCAAAGC [Xecerevear] (puzzle: Exclusion 2) | – | – | 303 | 412 | 326 | –
28 | CGAUAAAGGUGAGGAUAUGAGAAUAGAAAGAAAUCAGAAGGCACACAUGAGGAUCACCCAUGUGAGUUCUCGAGAUUACAUGGU [Prohibition 45 - Jieux - Exclusion NG 1] (Eterna round: R96, puzzle: Exclusion NG 1) | – | – | – | – | – | 10.8
29 | CGAUCACAUGAGGAUCACCCAUGUGAGGAUAUAAUAACGCGGCGUGAGCACGGGAAUUUUAGAAGGCACACGGU [Eternabot (Original) Solution 42] (Eterna round: R97, puzzle: Exclusion 1) | 14.2 | 13 | – | – | – | –
30 | CGAUCGGUAGGAUAUACAUGAACCUUGGUUGUGAGGCCUAAACAUGAGGAUCACCCAUGUAGAAGGACCUCGUA [EX2 C.10] (Eterna round: R97, puzzle: Exclusion 2) | 13.9 | 13.8 | – | – | – | –
31 | CGAUGUCUUCGGACAUCGAACAUGAGGAUCACCCAUGUAAUGAGCAGAUCCUCAUGCAAGCUUUUUGCUCGUCUUAU [Sensor v3 - turn-off variant 1 - 45] (puzzle: Sensor v3, turn-off variant 1) | – | – | 14 | 9.69 | 16.6 | –
